Test results reported in the supplement of paper PMC10724198.
± gives the standard deviation of the averaged measurements.

Tested on: Saccharomyces cerevisiae
Test: protein stability index of tFT-peptide fusion (C-terminal peptide) (PSI (0-1 scale)); higher = more stable (slower turnover)
Conditions: genetic background: wild type; temperature: 30 C
Procedure: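 Multiplexed protein stability (MPS) profiling in S. cerevisiae. Random 12-aa peptides (tFT-X12 library) are fused to the C-terminus of a sfGFP-mCherry tandem fluorescent timer, after mCherry and a GGGS linker. Cells are FACS-sorted into 8 mCherry/sfGFP bins and deep-sequenced. The protein stability index (PSI) is the read-weighted bin average, scaled from 0 (unstable) to 1 (stable). Only peptides with >10 reads are reported; cells were grown at 30 °C in SC-His with glucose.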
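Note: PSI is a weighted mean of sequencing reads over stability bins, variants kept only with over 10 reads, mCherry proximal and sfGFP distal, peptide attached via GGGS linker.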

In order of falling protein stability index:
1. LHSPWPFSAPGI  0.855 ± 0.2
2. PCPPRSLPPPTS  0.835 ± 0.16
3. HSCFPPLSTSVL  0.817 ± 0.12
4. IERFKKMRGVGS  0.801 ± 0.084
5. GKKRFENKKEKY  0.762 ± 0.12
6. PHNPTFSPPTCP  0.751 ± 0.027
7. RNARSPACRTRR  0.7481 ± 0.0052
8. THHPQRPPRTLP  0.745 ± 0.062
9. PPPVPPTPFLTR  0.744 ± 0.11
10. PPPPPHTSPSPT  0.744 ± 0.042
11. LSISGSVHILKD  0.733 ± 0.024
12. GDSVNSRALALS  0.732 ± 0.072
13. RLLGLWGEVMGF  0.731 ± 0.021
14. MGCSARLPLLSS  0.7215 ± 0.0016
15. PPPAPPPPHSLV  0.717 ± 0.057
16. IFNYGGANFIYC  0.714 ± 0.028
17. PPPSPPTAPAAP  0.713 ± 0.038
18. KAGVGAFLEPRS  0.713 ± 0.064
19. LGTVPLLPPRSP  0.713 ± 0.028
20. CLLPGSSYSFTS  0.712 ± 0.045
21. SAWTPPLCLLPP  0.711 ± 0.043
22. PFLSLPLSPPPP  0.71 ± 0.092
23. PSPRSPVPLTPS  0.708 ± 0.015
24. NGDRGQWGMNQR  0.708 ± 0.028
25. HWRWGGRSGGDR  0.707 ± 0.013
26. DSDGILTEPTSW  0.707 ± 0.0094
27. LPSPLPPPPPAH  0.707 ± 0.0082
28. VERIALIPASRQ  0.706 ± 0.035
29. FFVGAGGTEGLG  0.705 ± 0.0088
30. LDVASTPPLSTL  0.704 ± 0.023
31. KKTKKKQQGKIQ  0.702 ± 0.017
32. LVVLGVRGGGGG  0.701 ± 0.047
33. EDFCMVEQPGVE  0.7012 ± 0.0054
34. NWKNENGRELEE  0.7 ± 0.029
35. RRKRTKGRGRAQ  0.6986 ± 0.002
36. CGGFAEGGGCRM  0.697 ± 0.028
37. LISPPAQLAFVP  0.696 ± 0.016
38. QIYHIANPKILN  0.696 ± 0.055
39. CSTIRDFTIYPP  0.694 ± 0.11
40. HRCNCVFPENSL  0.693 ± 0.038
41. FPPPPLYFPFPL  0.693 ± 0.017
42. HFSPLILSSYTV  0.693 ± 0.037
43. PSGDYVVLTTVS  0.6901 ± 0.0038
44. FRRILGTIKLGR  0.69 ± 0.023
45. KEDKLLRSSEGF  0.6886 ± 0.0029
46. GGWWGGGGAWSG  0.689 ± 0.053
47. VLFGSVSCCLLW  0.686 ± 0.043
48. IPPLTKRPAPGG  0.684 ± 0.099
49. KNKKKNTIKKNK  0.684 ± 0.018
50. GSLIVAARGVAG  0.681 ± 0.024
51. PGNKHYRARNGA  0.678 ± 0.013
52. PPPRSPRSLPPL  0.676 ± 0.017
53. NKNDINRMVQVS  0.6754 ± 0.0062
54. GGGGGGGAGGSV  0.673 ± 0.0081
55. KGGREARRERRD  0.672 ± 0.036
56. CSLFRCSKVVLG  0.672 ± 0.037
57. KSPYNTPLSLVL  0.672 ± 0.024
58. SLPSHPLPDPSR  0.67 ± 0.018
59. GRVRAKTETSNS  0.669 ± 0.028
60. KNEESTKREGHF  0.669 ± 0.063
61. PRSTATSPPAPP  0.6678 ± 0.0019
62. QVNSAHKRTGSG  0.668 ± 0.061
63. SVRCPPLSPRPP  0.667 ± 0.036
64. CTLWCIPGCNMR  0.666 ± 0.066
65. KKKKSKIKKKRE  0.665 ± 0.042
66. MRCQFDGAVGVC  0.663 ± 0.074
67. SKDFLLILDPAK  0.662 ± 0.021
68. TRSLPTLSPPPS  0.659 ± 0.086
69. LGAHLSTAPPPP  0.655 ± 0.022
70. VGGCRVLCVGLG  0.651 ± 0.06
71. VFVLEGSSTPRS  0.6487 ± 0.0011
72. YSGYRASLVFEI  0.648 ± 0.099
73. LDVCDGVSGVRS  0.647 ± 0.035
74. SWRRRNGNCERR  0.646 ± 0.063
75. GEGEAVREMRGV  0.645 ± 0.025
76. PPAPLPQSAPTR  0.645 ± 0.038
77. KGSWTLGDGLVW  0.644 ± 0.013
78. KTLYIAKTKSRA  0.644 ± 0.038
79. YLSVPVGPAMAL  0.643 ± 0.1
80. FLVREGIGKRGC  0.641 ± 0.072
81. VGASFVAVGVEG  0.641 ± 0.041
82. FLLSLYSVPFVL  0.63984 ± 0.00021
83. KKKQKTIYRQKE  0.64 ± 0.089
84. FQAVSPRFLVLP  0.64 ± 0.046
85. VGSGEVFEVMEG  0.64 ± 0.036
86. SRRKMRILQIVD  0.623 ± 0.092
87. GEVGAVVGESFV  0.622 ± 0.071
88. SKLVEIIMKLQG  0.618 ± 0.055
89. EGCYGVRGNTLH  0.612 ± 0.017
90. VLNCVGLSLLVE  0.6068 ± 0.00076
91. DYLDYPSYNDLT  0.599 ± 0.038
92. IRSLPYVGVFIE  0.587 ± 0.036
93. SFCSSVFWFFWL  0.584 ± 0.037
94. DSLTKYSAKEYR  0.5777 ± 0.0052
95. SYFVIPGLSLSV  0.568 ± 0.056
96. LILRPLPPPLPP  0.5623 ± 0.0014
97. VWTITGFIPVVF  0.517 ± 0.032
98. FFFFPFLPFSWF  0.507 ± 0.0084
